Blank lines part the entries; values can stand above or below the binder they belong to.
How the values were obtained:
[1] = target: T1, Fzd1 cysteine rich domain (CRD), C-terminally biotinylated (human, UniProt Q9UP38 101-230); experiment: BLI; **=Kd 100-2000 nM
Method: (§1) Binding kinetics of antibody fragments to a variety of Fzd cysteine rich domain (CRD) protein targets (Fzd1, Fzd2, Fzd3, Fzd4, Fzd5, Fzd6, Fzd7, Fzd8, Fzd9 and/or Fzd10 CRDs) was determined by bio-layer interferometry (BLI) using Octet Red 96 (PALL ForteBio, Fremont, CA) instruments at 30° C., 1000 rpm with streptavidin (SA) biosensors. C-terminal biotinylated Fzd CRD recombinant protein was diluted to 20 nM in the running buffer (PBS, 0.05% Tween-20, 0.5% BSA, pH 7.2) and captured to the SA biosensor until coupling length reached 0.2 nm. Following capture of the Fzd CRD, the SA biosensor with captured biotinylated-Fzd CRD was dipped into wells containing the relevant antibody fragment at […] (0, 1.37, 4.12, 12.4, 37, 111.1, 333.3, 1000 nM) in running buffer, plus a well with only running buffer as a reference channel. […] was determined by global fitting, 1:1 binding model according to manufacturer recommended settings.
(§2) Table 1B provides clone IDs, the sequence identifier number of the antibody heavy chain fragment and/or light chain fragment, if present, for illustrative clones. In certain embodiments, the Fzd binding domain is an Fab or was derived from an Fab, so the heavy chain of Table 1B includes VH and CH1 sequence, but not CH2 or CH3 sequences. In certain embodiments, the Fzd binding domain is a VHH or sdAb® or was derived from a VHH or sdAb, so Table 1B includes the VHH domain. […] The Kd values were determined by BLI as described above. Blank entries denote that the binding to the specific Fzd receptor has not yet been determined. The entry of "n.b." indicates no binding.

[2] = target: Fzd2 cysteine rich domain (CRD), C-terminally biotinylated (human, UniProt Q14332 24-155); experiment: BLI; **=Kd 100-2000 nM
Method: as §1, §2

[3] = target: Fzd7 cysteine rich domain (CRD), C-terminally biotinylated (human, UniProt O75084 36-165); experiment: BLI; **=Kd 100-2000 nM
Method: as §1, §2

[4] = target: T1, Fzd1 cysteine rich domain (CRD), …; experiment: BLI; *=Kd <100 nM
Method: as §1, §2

[5] = target: T1, Fzd1 cysteine rich domain (CRD), …; experiment: BLI; **=Kd >100 nM
Method: as §1
One antibody fragment, clone 001S-A04, was selected for alanine-scanning mutagenesis of CDRs, and the respective Fzd1 binding affinities of the various mutants were determined by Octet BLI as described in Example 1.

B2: 001S-G02 (Fab, V domains shown)
VH: QVQLQESGPGLVKPSETLSLTCTVSGGAISGTSYFWGWIRQPPGKGLEWIGSIYYTGNTYYNPSLKSRLTVSVDTSKNQFSLNLNSVTAADTATYYCARIGIAVAAPVDHWGQGTLVTVSS
VL: EIVLTQSPATLSLSPGEGATLSCRASQSVGTYLTWYRQKPGQAPRLLIYDASNRATGIPARFSGSGAGTDFTLKISRVEAEDVGVYYCMQATQFPLTFGQGTKVEIKR
- Kd [1]: 100 to 2000 nM
- Kd [2]: 100 to 2000 nM
- Kd [3]: 100 to 2000 nM

B7: 001S-H02 (Fab, V domains shown)
VH: QVQLQESGPGLVKPSETLSLTCTVSGGSISSSSYYWGWIRQHPGKGLEWIGYIYYSGSTYYNPSLKSRVTISVDTSKNQFSLKLNSVTAADTAVYYCARATYGGDAFDIWGQGTMVTVSS
VL: QSVVTQPPSVSGAPGQRVTISCTRSSSNIGAGYDVHWYQQHPGTAPKLLIFGNSIRPSGVPDRFSGSKSGTSATLGITGLQTGDEADYYCGTWDSSLSAWVFGGGTKLTVLG
- Kd [1]: 100 to 2000 nM
- Kd [2]: 100 to 2000 nM
- Kd [3]: 100 to 2000 nM

B9: 001S-B01 (Fab, V domains shown)
VH: QLQLQESGSGLVKPSQTLSLTCAVSGGSISSGGYSWSWIRQPPGKGLEWIGSIYHSGSTYYNPSLKSRLTISVDTSKNQFSLKLSSVTAADTAVYYCARFYYDILTGYSYFDYWGQGTLVTVSS
VL: DIVMTHTPLSLSVTPGEPASISCRSSRSLLDTDDGNTYLDWYLQKPGQSPQLLIHTLSHRASGVPDRFSGSGSGTDFTLKISRVEAEDVGVYYCMQSIQLPWTFGQGTKVEIKR
- Kd [1]: 100 to 2000 nM
- Kd [2]: 100 to 2000 nM
- Kd [3]: 100 to 2000 nM

B12: 001S-A04 mutant VHT6A (Fab, V domains shown)
VH: EVQLVQSGAEVKKPGASVKVSCKASGYTFTSYGISWVRQAPGQGLEWMGWISAYNGNTNYAQKLQGRVTMTTDTSTSTAYMELRSLRSDDTAVYYCASSKEKAAYYYGMDVWGQGTTVTVSS
VL: QAVVLQEPSLSVSPGGTVTLTCGLSSGSVSTNYYPSWYQQTPGQAPRTLIYYTNTRSSDVPERFSGSIVGNKAALTITGAQPDDESVYFCLLYLGRGIWVFGGGTKLTVLG
- KD [5]: > 100 nM

B13: 001S-A04 mutant VLW9A (Fab, V domains shown)
VH: EVQLVQSGAEVKKPGASVKVSCKASGYTFTSYGISWVRQAPGQGLEWMGWISAYNGNTNYAQKLQGRVTMTTDTSTSTAYMELRSLRSDDTAVYYCASSKEKATYYYGMDVWGQGTTVTVSS
VL: QAVVLQEPSLSVSPGGTVTLTCGLSSGSVSTNYYPSWYQQTPGQAPRTLIYYTNTRSSDVPERFSGSIVGNKAALTITGAQPDDESVYFCLLYLGRGIAVFGGGTKLTVLG
- KD [5]: > 100 nM

B14: 001S-A04 mutant VHY9A (Fab, V domains shown)
VH: EVQLVQSGAEVKKPGASVKVSCKASGYTFTSYGISWVRQAPGQGLEWMGWISAYNGNTNYAQKLQGRVTMTTDTSTSTAYMELRSLRSDDTAVYYCASSKEKATYYAGMDVWGQGTTVTVSS
VL: QAVVLQEPSLSVSPGGTVTLTCGLSSGSVSTNYYPSWYQQTPGQAPRTLIYYTNTRSSDVPERFSGSIVGNKAALTITGAQPDDESVYFCLLYLGRGIWVFGGGTKLTVLG
- KD [5]: > 100 nM

B15: 001S-A04 mutant VHY7A (Fab, V domains shown)
VH: EVQLVQSGAEVKKPGASVKVSCKASGYTFTSYGISWVRQAPGQGLEWMGWISAYNGNTNYAQKLQGRVTMTTDTSTSTAYMELRSLRSDDTAVYYCASSKEKATAYYGMDVWGQGTTVTVSS
VL: QAVVLQEPSLSVSPGGTVTLTCGLSSGSVSTNYYPSWYQQTPGQAPRTLIYYTNTRSSDVPERFSGSIVGNKAALTITGAQPDDESVYFCLLYLGRGIWVFGGGTKLTVLG
- KD [5]: > 100 nM

B16: 001S-A03 (Fab, V domains shown)
VH: QLQLQESGPGLVKPSQTLSLTCTVSGGSISSGGYYWSWIRQHPGKGLEWIGYIYYSGSTYYNPSLKSRVTISVDKSKNQFSLKLSSVTAADTAVYYCARVRDYYDSSGYYYDYFDYWGQGTLVTVSS
VL: DIQLTQSPSSLSASVGDRVTITCRASRSISSYFNWYQQKPGKAPKLLIYAASSLQSGVPSRFSGSRSGTDFTLTISSLQPEDFATYYCQQADTFPPTFGQGTRLEIKR
- Kd [4]: < 100 nM
- Kd [2]: 100 to 2000 nM
- Kd [3]: 100 to 2000 nM

B17: 001S-B03 (Fab, V domains shown)
VH: QVQLQQWGAGLLKPSETLSLTCAVSGASFSGHYWTWIRQPPGKGLEWIGEIDHTGSTNYEPSLRSRVTISVDTSKNQFSLNLKSVTAADTAVYYCARGGQGGYDWGHYHGLDVWGQGTTVTVSS
VL: SYVLTQPPSVSVSPGQTASITCSGDKVGHKYASWYQQKPGQSPVLVIYEDSQRPSGIPVRFSGSNSGNTATLTISGTQAMDEADYYCQAWDSSTDVVFGGGTKLTVLG
notes: also called 1RC07
- Kd [4]: < 100 nM

Second part, the binder after the results:

- Kd [1]: 100 to 2000 nM
B1: 002S-G02 (VHH)
VHH: AVQLVDSGGGLMQAGGSLRLSCAASGRTFGTWAMGWFRQAPGKEREFVAAISYNGFSTYYSDAVKGRFTISRDNAKNTMYLQMDSLIPEDTAVYYCAAGPIARWYRGDMDYWGKGTQVTVSS

- Kd [2]: 100 to 2000 nM
B3: 003S-E07 (Fab, V domains shown)
VH: QVQLVQSGAEVKKPGSSVKVSCKASGYTFTNNFMHWVRQAPGQGLEWMGWINPNSGGTKYAQKFQGRVTITADESTSTAYMELSSLRSEDTAVYYCARSVGEVGATMLGIGVWYWFDPWGQGTLVTVSS
VL: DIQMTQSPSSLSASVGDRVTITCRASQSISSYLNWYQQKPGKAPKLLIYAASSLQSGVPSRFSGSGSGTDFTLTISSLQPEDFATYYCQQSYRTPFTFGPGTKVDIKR
notes: also called R2M9

- Kd [4]: < 100 nM
B4: 002S-A04 (VHH)
VHH: AVQLVESGGGLVQAGGSLRLSCTASGRTFSSYAMGWFRQAPGKEREFVAAISWSGRSTYYADSVKGRFTISRDNAKNTVYLQMNSLKSEDTAAYYCAAGPIARWYRGDMDYWGKGTLVTVSS

- Kd [4]: < 100 nM
B5: 002S-C02 (VHH)
VHH: DVQLVESGGGLVQTGGSLRLSCVASGRTFRAYAMGWFRQAPGKEREFVSAISWSGGSTYYAGSVKGRFTISRDSAKNTVHLQMDSLIPEDTAVYYCAAGPIARWYRGDMDYWGKGTLVTVSS

- Kd [1]: 100 to 2000 nM
B6: 002S-D04 (VHH)
VHH: QVKLEESGGGLVQAGGSLRLSCAASGGTSSTYAMGWFRQAPGKEREFVAAINRSGGSTYYADSVKGRFTISRDNAKNTVYLQMNSLNPEDTAVYYCAAVFLSRNYEIQEYYRYQGQGTQVTVSS

- Kd [1]: 100 to 2000 nM
B8: 002S-B04 (VHH)
VHH: DVQLVESGGGLVQAGGSLRLSCAASGRTFSSYAMGWFRQAPGKEREFVAAISWSGGSTYYADSVKGRFTISRDNAKNTVYLQMNSLKPEDTAVYYCAAGPNYSWFMPSSSRLIWGQGTLVTVSS

- Kd [4]: < 100 nM
B10: 002S-B01 (VHH)
VHH: EVQLVESGGGLVQAGGSLRLSCTASGSTFSNYAMGWFRQAPGKEREFVAAISWGGGSTFYSGSVKGRFTISRDSAKNTVHLQMDSLIPEDTAVYYCAAGPIARWYRGDMDYWGKGTLVTVSS

- Kd [2]: 100 to 2000 nM
B11: 005S-H05 (Fab, V domains shown)
VH: QVQLVQSGAEVKKPGASVKVSCKASGYTFTSYYMHWVRQAPGQGLEWMGRINPNSGGTNYAQKFQGRVTMTRDTSTSTVYMELSSLRSEDTAVYYCARVPDFWSGYLDYWGQGTLVTVSS
VL: DIQMTQSPSSLSASVGDRVTITCRASQGISSALAWYQQKPGKAPKLLIYAASSLQSGVPSRFSGSGSGTDFTLTISSLQPEDFATYYCQQTYSMPITFGQGTRLEIKR
